B1: SAP102 PDZ1-PDZ2 (aa144–331) (domain or fragment, rat, UniProt Q62936 144-331, looked up)
chain: MFKYEEIVLERGNSGLGFSIAGGIDNPHVPDDPGIFITKIIPGGAAAMDGRLGVNDCVLRVNEVDVSEVVHSRAVEALKEAGPVVRLVVRRRQPPPETIMEVNLLKGPKGLGFSIAGGIGNQHIPGDNSIYITKIIEGGAAQKDGRLQIGDRLLAVNNTNLQDVRHEEAVASLKNTSDMVYLKVAKPG
notes: also called tandem PDZ1-PDZ2; source: E. coli BL21-DE3, purified (Ni-HiTrap HP, SENP2 cleavage, Superdex 200); not shown: His6-SUMO, N-terminal, cleaved
B2: SAP102 PDZ2 (aa241–331) (domain or fragment, rat, UniProt Q62936 241-331, looked up)
chain: TIMEVNLLKGPKGLGFSIAGGIGNQHIPGDNSIYITKIIEGGAAQKDGRLQIGDRLLAVNNTNLQDVRHEEAVASLKNTSDMVYLKVAKPG
notes: source: E. coli BL21-DE3, purified (Ni-HiTrap HP, SENP2 cleavage, Superdex 200); not shown: His6-SUMO, N-terminal, cleaved

Biological target: T1, C-terminal half of Sec8 (Sec8c, aa544–975) (rat, UniProt Q62824 544-975)
T1 construct: Sec8 (exocyst subunit), Rattus norvegicus, C-terminal half, aa544–975; ends with the ITTV motif; Used in ITC and SEC under the plain name Sec8c; source: E. coli BL21-DE3, purified (Ni-HiTrap HP; Superdex 200)
T1 sequence (Q62824 544-975): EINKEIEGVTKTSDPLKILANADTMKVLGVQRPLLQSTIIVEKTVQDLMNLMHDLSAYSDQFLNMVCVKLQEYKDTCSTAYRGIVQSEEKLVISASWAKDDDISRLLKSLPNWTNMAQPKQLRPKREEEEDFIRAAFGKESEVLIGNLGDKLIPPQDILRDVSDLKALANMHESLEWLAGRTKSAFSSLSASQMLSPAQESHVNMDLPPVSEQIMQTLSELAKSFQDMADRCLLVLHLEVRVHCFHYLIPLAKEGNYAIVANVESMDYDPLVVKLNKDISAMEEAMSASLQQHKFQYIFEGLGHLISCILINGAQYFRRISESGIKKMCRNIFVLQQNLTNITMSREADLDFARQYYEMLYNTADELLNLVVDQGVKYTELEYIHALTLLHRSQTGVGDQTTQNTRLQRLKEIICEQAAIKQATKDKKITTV
Test: ITC; 300 µM SAP102 truncation in the syringe titrated into 30 µM Sec8c (or Sec8c-Δ958–971) in the cell; 20 mM HEPES pH 7.5, 100 mM NaCl, 1 mM DTT; one-set-of-sites model; control titration (protein to buffer) subtracted
Settings: both partners purified

Binder	Kd [µM]
B1	~6
B2	~4

— PMC10577314 (Frontiers in Cell and Developmental Biology, 2023)
